From patent US7910100B2, “Antibodies directed to the mammalian EAG1 ion channel protein” (Max-Planck-Gesellschaft zur Forderung der Wissen, priority 2004, dated 2011)

Columns and labels:
[1] = system: IPC-298 melanoma cells; assay: Soft agar assay IPC-298 with secondary immunotoxin Mab-ZAP; type: cell-based, human; settings: 2.5 ng antibody with 100 pg Mab-ZAP, 10 days
Description: For comparison Mab-ZAP was pre-incubated with 2.5 ng control IgG. After 30 min pre-incubation, 2000 IPC-298 cells in OptiMEM with 20 mM KCl were added and further incubated at 37° C. for 30 min. IPC-298 cells, pre-incubated with immunotoxin-labelled anti-EAG1 antibody, were resuspended in 50 μl/well 0.25% Difco noble agar containing OptiMEM with 0.5% FCS and plated on 50 μl/well 0.5% agarose underlayer containing OptiMEM with 0.5% FCS in quadruplicates. Additionally, 50 μl/well 0.25% feeding agar containing OptiMEM with 0.5% FCS was plated. Colonies were allowed to form for 10 days and were stained with 50 μl MTT (1 mg/ml in PBS) for 1.5 hours. Wells were scanned using an Epson scanner and colonies were counted using the Scion Image software.

[2] = molecular target: T1, Eag1 current (Homo sapiens, UniProt O95259); assay: Two-electrode voltage clamp in Eag1-expressing oocytes; type: cell-based; settings: 10% hybridoma supernatant
T1 construct: expressed in transfected cells
T1 sequence (O95259 1-962 isoform O95259-2): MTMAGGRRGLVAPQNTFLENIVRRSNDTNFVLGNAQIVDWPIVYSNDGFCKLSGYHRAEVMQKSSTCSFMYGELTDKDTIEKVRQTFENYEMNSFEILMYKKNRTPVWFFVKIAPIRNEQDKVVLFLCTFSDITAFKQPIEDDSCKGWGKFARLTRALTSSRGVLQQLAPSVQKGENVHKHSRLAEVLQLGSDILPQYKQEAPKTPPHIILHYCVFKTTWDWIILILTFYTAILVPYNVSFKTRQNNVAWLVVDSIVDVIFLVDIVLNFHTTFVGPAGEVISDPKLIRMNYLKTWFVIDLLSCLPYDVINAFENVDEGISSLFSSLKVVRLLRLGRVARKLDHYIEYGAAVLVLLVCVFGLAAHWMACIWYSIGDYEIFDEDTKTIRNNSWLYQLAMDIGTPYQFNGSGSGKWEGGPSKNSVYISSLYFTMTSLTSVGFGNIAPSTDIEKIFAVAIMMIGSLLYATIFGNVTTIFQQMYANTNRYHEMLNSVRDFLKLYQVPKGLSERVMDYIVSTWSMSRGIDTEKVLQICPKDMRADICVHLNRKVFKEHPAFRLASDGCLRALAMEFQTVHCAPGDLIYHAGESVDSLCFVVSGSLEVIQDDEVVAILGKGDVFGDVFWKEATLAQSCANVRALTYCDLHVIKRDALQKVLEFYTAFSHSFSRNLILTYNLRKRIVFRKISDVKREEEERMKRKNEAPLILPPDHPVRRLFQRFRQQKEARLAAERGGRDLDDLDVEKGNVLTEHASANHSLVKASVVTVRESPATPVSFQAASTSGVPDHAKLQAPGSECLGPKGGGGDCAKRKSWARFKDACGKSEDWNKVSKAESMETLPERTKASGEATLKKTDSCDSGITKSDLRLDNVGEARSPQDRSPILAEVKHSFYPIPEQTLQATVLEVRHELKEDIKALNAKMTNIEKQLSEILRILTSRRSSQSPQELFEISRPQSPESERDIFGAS
Description: In order to analyse the functional properties of anti-Eag1 antibodies of the invention were analysed by a two-electrode voltage clamp experiment. Therefore, Oocyte preparation and electrophysiological recordings were performed as described in Stühmer, W., 1992, Methods in Enzymology 207. Oocytes were injected with synthetic mRNA coding for Eag1, incubated for 48 h and recorded in NFR (115 mM NaCl, 1.8 CaCl2, 2.5 KCl, 10 Hepes pH 7.2) until stable traces were recorded. Then, 10% of the corresponding hybridoma supernatant producing ImAb1 or ImAb3 was added to the chamber and current amplitudes were further monitored.

[3] = system: Eag1; assay: BIAcore binding analysis on Eag1 C-terminus and H5 region; settings: 10 μg/ml antibody, flow rate 20 μl/min; chips coated with Eag1 C-terminus (aa 694 to 962) or H5 region (aa 374 to 452)
Description: In order to analyse cross-reactivity of anti-Eag1 antibodies of the invention with the most homologous Eag family member Eag2 a BIAcore™ binding analysis was performed. BIAcore chips were coated with Eag1 C-terminus (amino acids 694 to 962), the H5 region (amino acids 374 to 452) or Eag2 (the equivalent regions fused in a single construct). The interaction with anti-Eag1 antibodies ImAb1 and ImAb3 were analysed using 10 μg/ml antibody at a flow rate of 20 μl/min.

Molecule | inhibition of anchorage independent cell growth [1] | inhibition of Eag1 current [2] | binding region on Eag1 antigen [3]
ImAb4: mouse monoclonal anti-Eag1 antibody, IgG2b kappa; light chain SEQ ID NO: 2, heavy chain SEQ ID NO: 4 (antibody, listed as Mus musculus) heavy: MRVLILLWLFTAFPGILSDVQLQESGPGLVKPSQSLSLTCTVTGYSITSDYAWNWIRQFPGNKLEWMGYISYSGSTIYNPSLKSRISITRDTSKNQFFLQLNSVTTEDTATYYCARFGNYGNTLNYWGQGTSVTVSSAKTTPPSVYPLAPGCGDTTGSSVTLGCLVKGYFPESVTVTWNSGSLSSSVHTFPALLQSGLYTMSSSVTVPSSTWPSQTVTCSVAHPASSTTVDKKLEPSGPISTINPCPPCKECHKCPAPNLEGGPSVFIFPPNIKDVLMISLTPKVTCVVVDVSEDDPDVQISWFVNNVEVHTAQTQTHREDYNSTIRVVSTLPIQHQDWMSGKEFKCKVNNKDLPSPIERTISKIKGLVRAPQVYILPPPAEQLSRKDVSLTCLVVGFNPGDISVEWTSNGHTEENYKDTAPVLDSDGSYFIYSKLNMKTSKWEKTDSFSCNVRHEGLKNYYLKKTISRSPGK light: MKLPVRLLVLMFWIPASSSDVVMTQTPLSLPVSLGDQASISCRSSQSLVHSNGNTYLHWYLQKPGQSPKLLIYKVSNRFSGVPDRFSGSGSGTDFTLKISRVEAEDLGVYFCSQSTHVPPTFGGGTKLEIKRADAAPTVSIFPPSSEQLTSGGASVVCFLNNFYPKDINVKWKIDGSERQNGVLNSWTDQDSKDSTYSMSSTLTLTKDEYERHNSYTCEATHKTSTSPIVKSFNRNEC | inhibits anchorage independent tumor cell growth |  | 
ImAb1: mouse monoclonal anti-Eag1 antibody; VL SEQ ID NO: 43, VH SEQ ID NO: 44; binds C-terminus of Eag1 (antibody, listed as Mus musculus) heavy: MNFGFSLIFLVLVLKGVQCEVKLVESGGGLVKPGGSLKLSCAASGFTFSNYAMSWVRQTPEKRLEWVASISSDGDTYFPDNVKGRFTISRENAGNILFLQMSSLRSEDTAMYYCARGFMITFWGQGTLVTVSAAKTTPPSVYPLAPGCGDTTGSSVTLGCLVKGYFPESVTVTWNSGSLSSSVHTFPALLQSGLYTMSSSVTVPSSTWPSQTVTCSVAHPASSTTVD light: MDMRAPAQFFGILLLWFPGIRCDIKMTQSPSSMYASLGERVTITCKASQDIKSYLSWYQQKPWKSPKILIYYATSLADGVPSRISGSGSGQDYSLTISSLESDDTATYYCLQHGESPYTFGGGTKLEIKRADAAPTVSIFPPSSEQLTSGGASVVCFLNNFYPKDINVKWKIDGSERQNGVLNSWTDQDSKDSTYSMSSTLTLTKDEYERHNSYTCEATHKTSTSPIVKSFNRNEC |  | No inhibition of Eag1 current was detected | specifically binds to the C-terminus of the Eag1 antigen
